The test deals with T1, HybC (large subunit of E. coli Hydrogenase-2), processed form of 552 residues (E. coli, UniProt P0ACE0 1-552).
T1 sequence (looked up): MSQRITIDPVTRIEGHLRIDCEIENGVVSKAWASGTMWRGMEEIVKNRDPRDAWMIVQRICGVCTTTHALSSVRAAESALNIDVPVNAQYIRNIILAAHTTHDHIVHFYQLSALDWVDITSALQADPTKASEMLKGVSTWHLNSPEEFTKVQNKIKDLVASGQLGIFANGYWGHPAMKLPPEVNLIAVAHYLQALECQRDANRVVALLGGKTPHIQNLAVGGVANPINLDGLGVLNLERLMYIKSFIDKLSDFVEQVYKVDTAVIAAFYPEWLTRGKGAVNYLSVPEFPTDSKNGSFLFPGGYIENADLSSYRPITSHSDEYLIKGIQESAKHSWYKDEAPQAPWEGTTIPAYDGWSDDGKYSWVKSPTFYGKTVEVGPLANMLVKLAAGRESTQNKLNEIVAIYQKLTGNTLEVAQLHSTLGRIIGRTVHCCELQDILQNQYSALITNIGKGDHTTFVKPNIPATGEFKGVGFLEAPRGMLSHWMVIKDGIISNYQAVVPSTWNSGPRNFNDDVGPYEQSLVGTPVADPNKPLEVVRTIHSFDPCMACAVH
The test can be described thus: crystal structure.

B1: HybO ΔTat ΔTM with C-terminal His-tag (small subunit of E. coli Hydrogenase-2, encoded by plasmid pO^C) (domain or fragment, UniProt P69741 38-330, looked up)
chain: EMAESVTNPQRPPVIWIGAQECTGCTESLLRATHPTVENLVLETISLEYHEVLSAAFGHQVEENKHNALEKYKGQYVLVVDGSIPLKDNGIYCMVAGEPIVDHIRKAAEGAAAIIAIGSCSAWGGVAAAGVNPTGAVSLQEVLPGKTVINIPGCPPNPHNFLATVAHIITYGKPPKLDDKNRPTFAYGRLIHEHCERRPHFDAGRFAKEFGDEGHREGWCLYHLGCKGPETYGNCSTLQFCDVGGVWPVAIGHPCYGCNEEGIGFHKGIHQLANVENQTPRSQKPDVNAKEGG
On to B1, for which the binding result is on record as “binds”.

The values are drawn from article PMC5902676 (Biochemical Journal, 2018).
